Laboratory results taken from the supplement of paper PMC5998384.

Assays:
HeLa Kyoto [1] = assay: solubility in G1/S (NP-40 vs SDS abundance) (log2 ratio); higher = more soluble; details: cell cycle stage: G1/S
HeLa Kyoto [2] = assay: melting temperature (median over replicates), in situ; higher = more thermally stable
HeLa Kyoto [3] = assay: solubility change mitosis vs G1/S (difference of NP-40 vs SDS log2 ratios) (log2 ratio difference); higher = more soluble in mitosis
HeLa Kyoto [4] = assay: thermal stability score vs G1/S (z-score of summed log2 fold changes over temperatures); higher = more thermally stable than in G1/S
[5] = cell cycle stage: early G1 (4.5 h after nocodazole release)
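For melting temperature (median over replicates), in situ in this document: HeLa Kyoto cells synchronized by double thymidine or nocodazole block, proteins quantified by TMT10plex mass spectrometry, three independent biological replicates.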
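For solubility change mitosis vs G1/S (difference of NP-40 vs SDS log2 ratios) in this document: synchronized HeLa Kyoto cells (double thymidine block for G1/S, nocodazole release for mitosis), protein amounts in NP-40 versus SDS lysates quantified by mass spectrometry, three biological replicates.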
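For solubility in G1/S (NP-40 vs SDS abundance) in this document: HeLa Kyoto cells arrested at G1/S by double thymidine block, proteins quantified by TMT10plex mass spectrometry in mild NP-40 versus SDS extracts, three biological replicates.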
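For thermal stability score vs G1/S (z-score of summed log2 fold changes over temperatures) in this document: synchronized HeLa Kyoto cells, proteins quantified by TMT10plex mass spectrometry, three biological replicates, mitosis taken 0.5 h after nocodazole release, G1/S directly after double thymidine block.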

Sequence | solubility in G1/S (log2) (HeLa Kyoto [1]) | melting temperature (HeLa Kyoto [2]; cell cycle stage: G1/S) [°C] | melting temperature (HeLa Kyoto [2]; cell cycle stage: mitosis) [°C] | solubility change mitosis (log2) (HeLa Kyoto [3]) | thermal stability score (HeLa Kyoto [4]; [5]) | thermal stability score (HeLa Kyoto [4]; cell cycle stage: mitosis)
MAAAANSGSSLPLFDCPTWAGKPPPGLHLDVVKGDKLIEKLIIDEKKYYLFGRNPDLCDFTIDHQSCSRVHAALVYHKHLKRVFLIDLNSTHGTFLGHIRLEPHKPQQIPIDSTVSFGASTRAYTLREKPQTLPSAVKGDEKMGGEDDELKGLLGLPEEETELDNLTEFNTAHNKRISTLTIEEGNLDIQRPKRKRKNSRVTFSEDDEIINPEDVDPSVGRFRNMVQTAVVPVKKKRVEGPGSLGLEESGSRRMQNFAFSGGLYGGLPPTHSEAGSQPHGIHGTALIGGLPMPYPNLAPDVDLTPVVPSAVNMNPAPNPAVYNPEAVNEPKKKKYAKEAWPGKKPTPSLLI [PPP1R8] | 0.0809 | 50.4 | 51.2 | -0.0793 | 0.0118 | -0.547
MEATTAGVGRLEEEALRRKERLKALREKTGRKDKEDGEPKTKHLREEEEEGEKHRELRLRNYVPEDEDLKKRRVPQAKPVAVEEKVKEQLEAAKPEPVIEEVDLANLAPRKPDWDLKRDVAKKLEKLKKRTQRAIAELIRERLKGQEDSLASAVDAATEQKTCDSD [CCDC12] | 0.73 | 53.7 | 53.3 | 0.156 | -1.88 | -2.79
MAPWGKRLAGVRGVLLDISGVLYDSGAGGGTAIAGSVEAVARLKRSRLKVRFCTNESQKSRAELVGQLQRLGFDISEQEVTAPAPAACQILKEQGLRPYLLIHDGVRSEFDQIDTSNPNCVVIADAGESFSYQNMNNAFQVLMELEKPVLISLGKGRYYKETSGLMLDVGPYMKALEYACGIKAEVVGKPSPEFFKSALQAIGVEAHQAVMIGDDIVGDVGGAQRCGMRALQVRTGKFRPSDEHHPEVKADGYVDNLAEAVDLLLQHADK [LHPP] | 0.392 | 56.5 | 55.5 | 0.0085 | -1.67 | -2.15
MTDTRRRVKVYTLNEDRQWDDRGTGHVSSGYVERLKGMSLLVRAESDGSLLLESKINPNTAYQKQQDTLIVWSEAENYDLALSFQEKAGCDEIWEKICQVQGKDPSVDITQDLVDESEEERFDDMSSPGLELPSCELSRLEEIAELVASSLPSPLRREKLALALENEGYIKKLLELFHVCEDLENIEGLHHLYEIIKGIFLLNRTALFEVMFSEECIMDVIGCLEYDPALSQPRKHREFLTKTAKFKEVIPISDPELKQKIHQTYRVQYIQDMVLPTPSVFEENMLSTLHSFIFFNKVEIVGMLQEDEKFLTDLFAQLTDEATDEEKRQELVNFLKEFCAFSQTLQPQNRDAFFKTLSNMGILPALEVILGMDDTQVRSAATDIFSYLVEYNPSMVREFVMQEAQQNDDVSKKLTEQKITSKDILLINLIIEHMICDTDPELGGAVQLMGLLRTLVDPENMLATANKTEKTEFLGFFYKHCMHVLTAPLLANTTEDKPSKDDFQTAQLLALVLELLTFCVEHHTYHIKNYIINKDILRRVLVLMASKHAFLALCALRFKRKIIGLKDEFYNRYIMKSFLFEPVVKAFLNNGSRYNLMNSAIIEMFEFIRVEDIKSLTAHVIENYWKALEDVDYVQTFKGLKLRFEQQRERQDNPKLDSMRSILRNHRYRRDARTLEDEEEMWFNTDEDDMEDGEAVVSPSDKTKNDDDIMDPISKFMERKKLKESEEKEVLLKTNLSGRQSPSFKLSLSSGTKTNLTSQSSTTNLPGSPGSPGSPGSPGSPGSVPKNTSQTAAITTKGGLVGLVDYPDDDEDDDEDEDKEDTLPLSKKAKFDS [PPP4R3A] | 0.0151 | 52.9 | 52 | -0.214 | -0.659 | 0.337
MRGPPAWPLRLLEPPSPAEPGRLLPVACVWAAASRVPGSLSPFTGLRPARLWGAGPALLWGVGAARRWRSGCRGGGPGASRGVLGLARLLGLWARGPGSCRCGAFAGPGAPRLPRARFPGGPAAAAWAGDEAWRRGPAAPPGDKGRLRPAAAGLPEARKLLGLAYPERRRLAAAVGFLTMSSVISMSAPFFLGKIIDVIYTNPTVDYSDNLTRLCLGLSAVFLCGAAANAIRVYLMQTSGQRIVNRLRTSLFSSILRQEVAFFDKTRTGELINRLSSDTALLGRSVTENLSDGLRAGAQASVGISMMFFVSPNLATFVLSVVPPVSIIAVIYGRYLRKLTKVTQDSLAQATQLAEERIGNVRTVRAFGKEMTEIEKYASKVDHVMQLARKEAFARAGFFGATGLSGNLIVLSVLYKGGLLMGSAHMTVGELSSFLMYAFWVGISIGGLSSFYSELMKGLGAGGRLWELLEREPKLPFNEGVILNEKSFQGALEFKNVHFAYPARPEVPIFQDFSLSIPSGSVTALVGPSGSGKSTVLSLLLRLYDPASGTISLDGHDIRQLNPVWLRSKIGTVSQEPILFSCSIAENIAYGADDPSSVTAEEIQRVAEVANAVAFIRNFPQGFNTVVGEKGVLLSGGQKQRIAIARALLKNPKILLLDEATSALDAENEYLVQEALDRLMDGRTVLVIAHRLSTIKNANMVAVLDQGKITEYGKHEELLSKPNGIYRKLMNKQSFISA [ABCB10] | -0.0973 | 53.8 | 54 | -0.029 | 0.476 | -0.874
